The text below walks through data of US20250129140A1, “ANTI-HCMV ANTIBODIES AND ANTIGEN-BINDING FRAGMENTS THEREOF” (ICAHN SCHOOL OF MEDICINE AT MOUNT SINAI, priority 2021, published 2025).

For assay [1], the system named is HCMV. The assay can be described thus: Virus neutralization, summary statements across cell types and strains. Format: cell-based, Human cytomegalovirus. To be noted: MRC5; TB40/E, AD169R, TR, Towne.
Method: AD169R^BADrUL131, TB40E, TR, or Towne was pre-incubated with monoclonal antibodies (starting dilution of 100 μg/mL antibody) was diluted using 5 fold dilutions to achieve a final range of 50-0.016 μg/mL antibody after addition to 25 μL of media containing virus; final MOI 0.2) and incubated at 4° C. for 1 hr before the inoculum was added to the appropriate cell types (ARPE-19, HTR-svNeo, MRC5, or NHDF cells at 10,000 cells per well) for 2 hrs at 37° C., 5% CO2. Following infection, the inoculum was removed and replaced with 100 μL complete DMEM/F-12 media before an overnight incubation at 37° C., 5% CO2.
Cells were fixed using 4% paraformaldehyde (PFA) for 20 minutes at room temp. Cells were then permeabilized using 0.3% Triton X-100 (Thermo Fisher, #HFH10) in PBS and stained with an affinity-purified, polyclonal rabbit anti-IE1-1/2 (0.7 ng/ml) primary and an anti-rabbit Alexa Fluor 647 (1:1000) secondary. To quantify total cells per well, Hoechst (Molecular Probes, #H3570) was diluted 1:100,000 in PBS and incubated with cells for 20 minutes at room temp. Virus neutralization was quantified using a Celigo cytometer (Nexelcom Bioscience). Percent infection was calculated using ((#IE1-1+)/(#Hoechst+))*100 events per well and normalized to the percent infection when an irrelevant, non-neutralizing, or no antibody was used.
The student's unpaired, two tailed t tests were performed using the GraphPad Prism software (La Jolla, CA). An asterisk identifies statistical significance of P<0.05 or less.
In assay [2] the test system is recombinant HCMV pentamer (strain VR1814) consisting of gH, gL, UL128, UL130 and UL131A. Kind of assay: Biolayer interferometry (Octet RED) KD determination. The class given is binding, Human cytomegalovirus. To be noted: for kon: association 3 minutes; for kdis: dissociation 3 minutes in PBS. Here is the method:
Biolayer interferometry assays were performed using the Octet RED instrument (ForteBio, Inc.) to determine the association (kon) and dissociation (kdis) constants for each antibody. Purified monoclonal antibody was loaded onto the anti-mouse Fc IgG capture (AMC) biosensors using 5-fold dilutions (50-0.016 μg/mL in PBS) for 10 minutes. To determine the kon, the sensors were exposed to the recombinant HCMV pentamer (strain VR1814) consisting of gH, gL, UL128, UL130 and UL131A (Native Antigen, CMV-PENT-100) at a constant concentration of 100 μg/mL in PBS for 3 minutes. To determine the kdis, dissociation was measured over the course of 3 minutes while the sensors were in PBS buffer. KD values were calculated as a ratio of […].
To examine this further, 293 Expi cells were transfected with wildtype gH, wildtype gL, cotransfected with gH and gL (gH+gL), transfected with a single plasmid expressing both gH and gL (gH/gL) or co-transfected a variety of gH mutants and gL. Three days post transfection the cells were harvested and stained with unlabeled primary at 0.5 μg/mL using the antibodies indicated. Transfection efficiency was determined by measuring GFP expression on day 3 and binding was determined by percent Alexa Fluor 647 positive cells using a conjugated secondary. […] The binding profile for 1G9 is most similar to 10F8. Although the ratios of gH, gL and gO plasmid were 1:1:1 it is not certain how efficiently the trimer was assembled following transfection. […] To discern minute differences in antibody binding biolayer interferometry was used, immobilizing each of the purified monoclonal antibodies (50-0.016 μg/mL) onto anti-mouse IgG Fc capture (AMC) biosensors and exposing the sensors to recombinant pentamer (100 μg/mL).

In assay [3] the target is T1, gH monomer (Human cytomegalovirus, UniProt Q6SW67).
T1 construct: expressed in transfected cells; host or cells: 293 Expi (Expi293F) cells
The assay can be described thus: Binding to 293 Expi cells transfected with gH alone. As to conditions: 3 days post transfection. The procedure:
(§1) gH mutants were cloned into pcDNA 3.1 and co-transfected with gL (1:1 ratio, 6 μg plasmid total) with lipofectamine 2000 (Thermo Fisher, #11668019) into 293Expi cells (7.5×10^6). Cells were harvested 3 days post transfection and fixed before being incubated with α-gH antibodies (2 μg/mL) for 1 hr at RT. Cells were washed and then incubated in anti-mouse AF647 conjugated secondary (1:1000) in order to quantify binding. Transfection efficiency was determined using pMAX eGFP plasmid which was spiked in at 0.1 μg per well.
(§2) To examine this further, 293 Expi cells were transfected with wildtype gH, wildtype gL, cotransfected with gH and gL (gH+gL), transfected with a single plasmid expressing both gH and gL (gH/gL) or co-transfected a variety of gH mutants and gL. Three days post transfection the cells were harvested and stained with unlabeled primary at 0.5 μg/mL using the antibodies indicated. Transfection efficiency was determined by measuring GFP expression on day 3 and binding was determined by percent Alexa Fluor 647 positive cells using a conjugated secondary. […] The binding profile for 1G9 is most similar to 10F8. Although the ratios of gH, gL and gO plasmid were 1:1:1 it is not certain how efficiently the trimer was assembled following transfection. […]

In assay [4] the target is T2, gH/gL/gO trimer (Human cytomegalovirus, UniProt F5HCH8+Q6SW67, DEL177-177/E103D/E61Q/G77R).
T2 construct: expressed in transfected cells; host or cells: 293 Expi (Expi293F) cells
Kind of assay: Binding to 293 Expi cells transfected with gH/gL/gO. As to conditions: 3 days post transfection. Here is the method: as §1, §2

Assay [5] has as its system HCMV AD169R. The assay can be described thus: Neutralization by fully human versus chimeric antibody versions. Format: cell-based, Human cytomegalovirus. As to conditions: human IgG1 Fc versus mouse Fc. Here is the method: Increasing concentrations of monoclonal antibodies (0.016-50 μg/mL) were incubated with AD169R (MOI 0.2) to assess neutralizing capacity. Percent infection was quantified using GFP expression at 18 hpi and normalized based on infection with virus alone (no antibody). CMV hyperimmune globulin (CytoGam®) was used as a control (trace on the upper right in FIGS. 8A, 8B, 8C, and 8D). FIG. 8A. […] FIG. 8B. Fully human (hu, comprising human variable and human constant regions) and chimeric (ms, comprising human variable and murine constant regions) versions of 9A12. FIG. 8C. Fully human (hu, comprising human variable and human constant regions) and chimeric (ms, comprising human variable and murine constant regions) versions of 13G1. FIG. 8D. Fully human (hu, comprising human variable and human constant regions) and chimeric (ms, comprising human variable and murine constant regions) versions of 14E1.
For this, the mouse Fc region of these mAbs was replaced with the human IgG1 Fc region.

Assay [6] has as its system CMV TB40/E infected fibroblasts. Kind of assay: SCID mouse gelfoam implant model of CMV proliferation. Format: in vivo, SCID mice. As to conditions: fully human mAbs 4 or 18 mg/kg, ganciclovir 50 mg/kg; i.p. every three days; day ten; versus isotype control. The procedure: At day ten post-implantation, the cells were released from the gelfoam and DNA extracted from the cells was subjected to qPCR for the HCMV UL123 and β-actin genes. The relative CMV levels cells were determined from Ct values of qPCR analysis (in triplicate) from cells collected from three mice/treatment. Statistical tests were performed using ordinary one-way ANOVA with comparisons to isotype treated cells as a control and a Dunnett's post-test; **, p<0.01; ***, p<0.001; ****, p<0.0001.
The gelfoam was implanted subcutaneously in three mice per group. […] Treatments were administrated every three days for nine days. At day ten post-implant, the gelfoam was removed and cells were released from the gel foam by collagenase treatment. The total DNA was harvest from the cells, quantified, and subjected to qPCR for UL123 (CMV gene) and b-actin (housekeeping geen) using SYBR green to evaluate virus proliferation. The qPCR analysis was performed in triplicate from three animals to determine the Ct values for UL123 and b-actin to calculate the relative levels of CMV DNA from the gelfoam samples.

Assay [7] has as its system HCMV gB (U373-gB cells). The assay can be described thus: Flow cytometry binding to U373-gB cells. Also on record: species or system Human cytomegalovirus.
The test system of assay [8] is HCMV BADrUL131. The assay can be described thus: Dissemination / focus forming unit (FFU) assay in ARPE-19 cells. Format: cell-based, Human cytomegalovirus. Here is the method: ARPE-19 or NHDF cells were plates at 50,000 cells per well in a 24 well and infected the following day. TB40/E (MOI 0.01) and AD169RBAD^rUL131 (MOI 0.1 & 0.01) was incubated with either 10 μg/mL or 0.5 μg/mL of antibody one hour prior to addition to cells. Following a 2 hr incubation at 37° C., 5% CO2 the inoculum was removed, and cells were overlaid with 1% low melt temperature sea agarose overlay. The overlay was allowed to solidify at room temp and then 500 μL of media was added before cells were put back into the incubator. At 7 days post infection, the cells were scanned using the brightfield and GFP filters and then placed back into the tissue culture incubator until the assay was stopped by fixation and immunostaining on day 10 or 14 as indicated.
Next, a focus forming unit (FFU) assay was optimized to examine the antibodies ability to block viral replication and dissemination over multiple infection cycles. […] Once the assay was terminated at Day 10 or 14, the cells were fixed and performed immunostaining to quantify total cells by Hoechst or infection using IE1-1 as readout for infection. […] The number of FFUs was quantified per well, using 10,000 μm^2 as a cutoff for plaque area. […] Images were taken on day 7 post infection and the relative number of plaques per well was calculated compared to wells that received an irrelevant control antibody M2E10. […]

B1: 9A12: anti-HCMV gH/gL monoclonal antibody, fusion 2; VH SEQ ID NO:59, VL SEQ ID NO:60; chimeric and fully human IgG1 versions (antibody, V domains shown)
VH: EVQLVESGGVLVQPGGSLRLSCAASGFTFSSHEMNWVRQAPGKGLEWISYISSTGSTIYDADSVKGRFTISRDNAKNSLYLQMNSLRAEDTAVYYCARSSGWYRNYSYGMDVWGQGTTVTVSS
VL: DIQMAQSPSSLSASVGDRVTITCRASQGIYNYLAWFQQKPGKAPKSLIYAASSLQTGVPSKFSGSGSGTDFTLTISNLQPEDFATYYCQQYNSFPRTFGQGTKVEIK
modifications: IgG1 constant regions
notes: anti-HCMV gH/gL monoclonal antibody, fusion 2; chimeric and fully human IgG1 versions
B1: in assay [1], the “neutralization of infection across all strains” value is recorded as “consistently neutralized infection”. In addition, in assay [2], the “kon” value was 24800 M⁻¹ s⁻¹ and the “kdis” value came out at 8.6e-05 s⁻¹. Moreover, the “binding to cells transfected with gH alone” value in assay [3] is recorded as “bound”. Moreover, the “binding to cells transfected with gH/gL/gO” value in assay [4] is recorded as “bound”. Also, the “IC50 / neutralizing capacity of fully human version compared to chimeric counterpart” value in assay [5] is “remained unchanged”. Moreover, the “CMV DNA levels (UL123 relative to β-actin, qPCR)” value in assay [6] was “limit CMV infection and proliferation”.

B2: 13G1: anti-HCMV gH/gL monoclonal antibody, fusion 3; VH SEQ ID NO:38, VL SEQ ID NO:39; chimeric and fully human IgG1 versions (antibody, V domains shown)
VH: QVTLKESGPVLVKPTETLTLTCTVSGFSLYNARMGVTWIRQPPGKALEWLAHIFSNDERSYTSSLKNRLTISKDTSKSQVVLTMTNMDPVDTATYYCARIDYSNYIGNWFDPWGQGTLVTVSS
VL: DIQMTQSPSSLSASVGDRVTITCRASQSISNYLNWYQQKPGKAPKLLIYAASSLQGGVPSRFSGSGSGTDFTLTISSLQPEDFTTYYCQQSYSTPFTFGGGTKVEIK
modifications: IgG1 constant regions
notes: anti-HCMV gH/gL monoclonal antibody, fusion 3; chimeric and fully human IgG1 versions
As for B2, in assay [1], the “neutralization of infection across all strains” value is “consistently neutralized infection”. In assay [2], the on-rate constant (kon) is 12900 M⁻¹ s⁻¹ and the “kdis” value stood at 6.51e-05 s⁻¹. Further, in assay [7] (live cells, surface), the “binding to the surface of U373-gB cells” value is reported as “bind non-specifically”. The “binding to U373-gB cells fixed and permeabilized” value in assay [7] (permeabilized cells) is “does not significantly bind”. Further, the “IC50 / neutralizing capacity of fully human version compared to chimeric counterpart” value in assay [5] is listed as “improved IC50 values”. For the same molecule, the “CMV DNA levels (UL123 relative to β-actin, qPCR)” value in assay [6] was “limit CMV infection and proliferation”.

B3: 14E1 (antibody, V domains shown)
VH: QVQLVQSGAEVKKPGASVKVSCKASGYTFTSYSISWVRQAPGQGLEWMGWINTYNGNTNYAQRVQARVTMTTDTSTSTAYMELRSLRSDDTAVYYCARDHGFFFDYWGQGNLVTVSS
VL: DIQLTQSPSFLSASVGDRVTITCWASQGISSYLAWYQQKPGKAPKLLIYAASTLQSGVPSRFSGSGSGTEFTLTISSLQPEDFATYYCQQLNSYPYTFGQGTQLEIK
For the molecule B3, in assay [2], the on-rate constant (kon) came out at 24400 M⁻¹ s⁻¹ and the “kdis” value is 0.00158 s⁻¹. For the same molecule, the “rank of binding constant within the panel” value in assay [2] (recombinant pentamer) was “weakest”. For the same molecule, the “limiting viral dissemination at low concentration” value in assay [8] was “effective”. In addition, the “IC50 / neutralizing capacity of fully human version compared to chimeric counterpart” value in assay [5] was “improved IC50 values”.
